Results as given in patent US20250352667A1.
Blank lines part the entries; values can stand above or below the binder they belong to.

Key:
[1] = target: KEAP1 (wild-type full-length), His-tagged (human) (UniProt Q14145); test: AlphaScreen; 4.8 nM FLAG-NRF2, 150 nM His-KEAP1; Rep 1; control for I86V
[2] = target: KEAP1 (wild-type full-length), His-tagged (human) (UniProt Q14145); test: AlphaScreen; 4.8 nM FLAG-NRF2, 150 nM His-KEAP1; Rep 3; control for I86V
[3] = target: KEAP1 (wild-type full-length), His-tagged (human) (UniProt Q14145); test: AlphaScreen; 153.6 nM FLAG-NRF2, 150 nM His-KEAP1; Rep 1; control for I86V
[4] = target: KEAP1 (wild-type full-length), His-tagged (human) (UniProt Q14145); test: AlphaScreen; 153.6 nM FLAG-NRF2, 150 nM His-KEAP1; Rep 2; control for I86V
[5] = target: KEAP1 (wild-type full-length), His-tagged (human) (UniProt Q14145); test: AlphaScreen; 614.4 nM FLAG-NRF2, 150 nM His-KEAP1; Rep 1; control for I86V
[6] = target: KEAP1 (wild-type full-length), His-tagged (human) (UniProt Q14145); test: AlphaScreen; 38.4 nM FLAG-NRF2, 150 nM His-KEAP1; Repeat 2 (same value as in Table 26)
[7] = target: KEAP1 (wild-type full-length), His-tagged (human) (UniProt Q14145); test: AlphaScreen; NRF2 wt isoform 1 19.2 nM, KEAP1 150 nM; set as the 100 % reference for Q75R
[8] = target: KEAP1 (wild-type full-length), His-tagged (human) (UniProt Q14145); test: AlphaScreen; FLAG-NRF2 wt isoform 1 9.6 nM, His-KEAP1 150 nM; Rep 2; positive control for I86V
[9] = target: KEAP1 (wild-type full-length), His-tagged (human) (UniProt Q14145); test: AlphaScreen; FLAG-NRF2 wt isoform 1 153.6 nM, His-KEAP1 150 nM; Rep 2; positive control for Q75R
[10] = target: KEAP1 (wild-type full-length), His-tagged (human) (UniProt Q14145); test: AlphaScreen; FLAG-NRF2 wt isoform 1 307.2 nM, His-KEAP1 150 nM; Rep 1; positive control for Q75R
[11] = target: KEAP1 (wild-type full-length), His-tagged (human) (UniProt Q14145); test: AlphaScreen; FLAG-NRF2 wt isoform 1 307.2 nM, His-KEAP1 150 nM; Rep 2; positive control for Q75R
[12] = target: KEAP1 (wild-type full-length), His-tagged (human) (UniProt Q14145); test: AlphaScreen; FLAG-NRF2 wt isoform 1 1228.8 nM, His-KEAP1 150 nM; Rep 1; positive control for Q75R
[13] = target: KEAP1 (wild-type full-length), His-tagged (human) (UniProt Q14145); test: AlphaScreen; NRF2 wt isoform 1 38.4 nM, KEAP1 150 nM; signal against NRF2-only control; control for I86V
[14] = target: KEAP1 (wild-type full-length), His-tagged (human) (UniProt Q14145); test: AlphaScreen; NRF2 wt isoform 1 38.4 nM, KEAP1 150 nM; signal against NRF2-only control; control for Q75R
[15] = target: KEAP1 (wild-type full-length), His-tagged (human) (UniProt Q14145); test: AlphaScreen; NRF2 wt isoform 1 1228.8 nM, KEAP1 150 nM; signal against NRF2-only control; control for Q75R
[16] = target: KEAP1 (wild-type full-length), His-tagged (human) (UniProt Q14145); test: AlphaScreen, all variants on one plate; optimal condition (19.2 nM NRF2), KEAP1 150 nM; the reference itself
[17] = target: KEAP1 (wild-type full-length), His-tagged (human) (UniProt Q14145); test: AlphaScreen; FLAG-NRF2 I86V 9.6 nM, His-KEAP1 150 nM; Rep 1
[18] = target: KEAP1 (wild-type full-length), His-tagged (human) (UniProt Q14145); test: AlphaScreen; FLAG-NRF2 I86V 76.8 nM, His-KEAP1 150 nM; Rep 1
[19] = target: KEAP1 (wild-type full-length), His-tagged (human) (UniProt Q14145); test: AlphaScreen; FLAG-NRF2 I86V 76.8 nM, His-KEAP1 150 nM; Rep 2
[20] = target: KEAP1 (wild-type full-length), His-tagged (human) (UniProt Q14145); test: AlphaScreen; NRF2 I86V 9.6 nM, KEAP1 150 nM; signal against NRF2-only control
[21] = target: KEAP1 (wild-type full-length), His-tagged (human) (UniProt Q14145); test: AlphaScreen; 614.4 nM FLAG-NRF2, 150 nM His-KEAP1; Rep 1
[22] = target: KEAP1 (wild-type full-length), His-tagged (human) (UniProt Q14145); test: AlphaScreen; average of three conditions; against wild-type NRF2 isoform 1
[23] = target: KEAP1 (wild-type full-length), His-tagged (human) (UniProt Q14145); test: AlphaScreen; 19.2 nM FLAG-NRF2, 150 nM His-KEAP1 (same value as in Table 27)
[24] = target: KEAP1 (wild-type full-length), His-tagged (human) (UniProt Q14145); test: AlphaScreen; 19.2 nM FLAG-NRF2, 150 nM His-KEAP1; Repeat 1 (same value as in Table 27)
[25] = target: KEAP1 (wild-type full-length), His-tagged (human) (UniProt Q14145); test: AlphaScreen; FLAG-NRF2 Q75R 4.8 nM, His-KEAP1 150 nM; Rep 2
[26] = target: KEAP1 (wild-type full-length), His-tagged (human) (UniProt Q14145); test: AlphaScreen; FLAG-NRF2 Q75R 614.4 nM, His-KEAP1 150 nM; Rep 2
[27] = target: KEAP1 (wild-type full-length), His-tagged (human) (UniProt Q14145); test: AlphaScreen; FLAG-NRF2 Q75R 9.6 nM, His-KEAP1 150 nM; Repeat 2

Chain of KEAP1 (wild-type full-length), His-tagged (human) (Q14145 2-624 limits assumed): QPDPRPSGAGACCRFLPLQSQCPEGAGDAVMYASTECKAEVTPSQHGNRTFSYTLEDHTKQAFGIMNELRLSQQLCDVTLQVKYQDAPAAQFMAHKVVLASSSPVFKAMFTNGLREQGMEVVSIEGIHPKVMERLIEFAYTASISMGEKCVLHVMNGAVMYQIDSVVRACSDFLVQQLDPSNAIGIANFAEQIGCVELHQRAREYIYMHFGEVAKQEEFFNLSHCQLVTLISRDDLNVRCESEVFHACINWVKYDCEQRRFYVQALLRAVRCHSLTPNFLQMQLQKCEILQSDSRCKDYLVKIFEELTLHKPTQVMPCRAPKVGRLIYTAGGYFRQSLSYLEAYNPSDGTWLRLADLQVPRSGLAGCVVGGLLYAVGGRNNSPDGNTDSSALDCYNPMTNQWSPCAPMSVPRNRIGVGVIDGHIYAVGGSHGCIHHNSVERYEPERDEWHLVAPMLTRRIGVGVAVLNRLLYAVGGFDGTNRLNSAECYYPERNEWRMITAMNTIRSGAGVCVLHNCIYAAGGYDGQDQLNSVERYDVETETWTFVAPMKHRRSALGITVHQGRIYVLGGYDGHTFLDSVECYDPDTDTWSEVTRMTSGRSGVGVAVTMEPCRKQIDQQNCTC

A-counts [1]: 1810 A-counts | A-counts [2]: 1860 A-counts | A-counts [3]: 3060 A-counts | A-counts [4]: 3090 A-counts | A-counts [5]: 2660 A-counts | A-counts [6]: 1900 A-counts | Binding Percentage [7]: 100% | A-counts (NRF2 plus KEAP1) [8]: 2720 A-counts | A-counts (NRF2 plus KEAP1) [9]: 1500 A-counts | A-counts (NRF2 plus KEAP1) [10]: 1560 A-counts | A-counts (NRF2 plus KEAP1) [11]: 1570 A-counts | A-counts (NRF2 plus KEAP1) [12]: 1490 A-counts | S/N [13]: 3 | S/N [14]: 2.8 | S/N [15]: 0.9 | % Disruption in Binding [16]: 0%
B1: NRF2 isoform 1 (wild-type full-length), FLAG-tagged (protein)
chain: MMDLELPPPGLPSQQDMDLIDILWRQDIDLGVSREVFDFSQRRKEYELEKQKKLEKERQEQLQKEQEKAFFAQLQLDEETGEFLPIQPAQHIQSETSGSANYSQVAHIPKSDALYFDDCMQLLAQTFPFVDDNEVSSATFQSLVPDIPGHIESPVFIATNQAQSPETSVAQVAPVDLDGMQQDIEQVWEELLSIPELQCLNIENDKLVETTMVPSPEAKLTEVDNYHFYSSIPSMEKEVGNCSPHFLNAFEDSFSSILSTEDPNQLTVNSLNSDATVNTDFGDEFYSAFIAEPSISNSMPSPATLSHSLSELLNGPIDVSDLSLCKAFNQNHPESTAEFNDSDSGISLNTSPSVASPEHSVESSSYGDTLLGLSDSEVEELDSAPGSVKQNGPKTPVHSSGDMVQPLSPSQGQSTHVHDAQCENTPEKELPVSPGHRKTPFTKDKHSSRLEAHLTRDELRAKALHIPFPVEKIINLPVVDFNEMMSKEQFNEAQLALIRDIRRRGKNKVAAQNCRKRKLENIVELEQDLDHLKDEKEKLLKEKGENDKSLHLLKKQLSTLYLEVFSMLRDEDGKPYSPSEYSLQQTRDGNVFLVPKSKKPDVKKN

A-counts (NRF2 plus KEAP1) [17]: 2730 A-counts | A-counts (NRF2 plus KEAP1) [18]: 2810 A-counts | A-counts (NRF2 plus KEAP1) [19]: 2800 A-counts | S/N [20]: 3.6
B2: NRF2 isoform 1 (I86V full-length), FLAG-tagged (protein)
chain: MMDLELPPPGLPSQQDMDLIDILWRQDIDLGVSREVFDFSQRRKEYELEKQKKLEKERQEQLQKEQEKAFFAQLQLDEETGEFLPVQPAQHIQSETSGSANYSQVAHIPKSDALYFDDCMQLLAQTFPFVDDNEVSSATFQSLVPDIPGHIESPVFIATNQAQSPETSVAQVAPVDLDGMQQDIEQVWEELLSIPELQCLNIENDKLVETTMVPSPEAKLTEVDNYHFYSSIPSMEKEVGNCSPHFLNAFEDSFSSILSTEDPNQLTVNSLNSDATVNTDFGDEFYSAFIAEPSISNSMPSPATLSHSLSELLNGPIDVSDLSLCKAFNQNHPESTAEFNDSDSGISLNTSPSVASPEHSVESSSYGDTLLGLSDSEVEELDSAPGSVKQNGPKTPVHSSGDMVQPLSPSQGQSTHVHDAQCENTPEKELPVSPGHRKTPFTKDKHSSRLEAHLTRDELRAKALHIPFPVEKIINLPVVDFNEMMSKEQFNEAQLALIRDIRRRGKNKVAAQNCRKRKLENIVELEQDLDHLKDEKEKLLKEKGENDKSLHLLKKQLSTLYLEVFSMLRDEDGKPYSPSEYSLQQTRDGNVFLVPKSKKPDVKKN

A-counts [21]: 1220 A-counts | Reported Value (reduction in binding) [22]: 30.2% | S/N [23]: 3.2 | A-counts [24]: 1730 A-counts
B3: NRF2 isoform 1 (I28V full-length), FLAG-tagged (protein)
chain: MMDLELPPPGLPSQQDMDLIDILWRQDVDLGVSREVFDFSQRRKEYELEKQKKLEKERQEQLQKEQEKAFFAQLQLDEETGEFLPIQPAQHIQSETSGSANYSQVAHIPKSDALYFDDCMQLLAQTFPFVDDNEVSSATFQSLVPDIPGHIESPVFIATNQAQSPETSVAQVAPVDLDGMQQDIEQVWEELLSIPELQCLNIENDKLVETTMVPSPEAKLTEVDNYHFYSSIPSMEKEVGNCSPHFLNAFEDSFSSILSTEDPNQLTVNSLNSDATVNTDFGDEFYSAFIAEPSISNSMPSPATLSHSLSELLNGPIDVSDLSLCKAFNQNHPESTAEFNDSDSGISLNTSPSVASPEHSVESSSYGDTLLGLSDSEVEELDSAPGSVKQNGPKTPVHSSGDMVQPLSPSQGQSTHVHDAQCENTPEKELPVSPGHRKTPFTKDKHSSRLEAHLTRDELRAKALHIPFPVEKIINLPVVDFNEMMSKEQFNEAQLALIRDIRRRGKNKVAAQNCRKRKLENIVELEQDLDHLKDEKEKLLKEKGENDKSLHLLKKQLSTLYLEVFSMLRDEDGKPYSPSEYSLQQTRDGNVFLVPKSKKPDVKKN

A-counts (NRF2 plus KEAP1) [25]: 819 A-counts | A-counts (NRF2 plus KEAP1) [26]: 855 A-counts | A-counts (NRF2 plus KEAP1) [27]: 1090 A-counts
B4: NRF2 isoform 1 (Q75R full-length), FLAG-tagged (protein)
chain: MMDLELPPPGLPSQQDMDLIDILWRQDIDLGVSREVFDFSQRRKEYELEKQKKLEKERQEQLQKEQEKAFFAQLRLDEETGEFLPIQPAQHIQSETSGSANYSQVAHIPKSDALYFDDCMQLLAQTFPFVDDNEVSSATFQSLVPDIPGHIESPVFIATNQAQSPETSVAQVAPVDLDGMQQDIEQVWEELLSIPELQCLNIENDKLVETTMVPSPEAKLTEVDNYHFYSSIPSMEKEVGNCSPHFLNAFEDSFSSILSTEDPNQLTVNSLNSDATVNTDFGDEFYSAFIAEPSISNSMPSPATLSHSLSELLNGPIDVSDLSLCKAFNQNHPESTAEFNDSDSGISLNTSPSVASPEHSVESSSYGDTLLGLSDSEVEELDSAPGSVKQNGPKTPVHSSGDMVQPLSPSQGQSTHVHDAQCENTPEKELPVSPGHRKTPFTKDKHSSRLEAHLTRDELRAKALHIPFPVEKIINLPVVDFNEMMSKEQFNEAQLALIRDIRRRGKNKVAAQNCRKRKLENIVELEQDLDHLKDEKEKLLKEKGENDKSLHLLKKQLSTLYLEVFSMLRDEDGKPYSPSEYSLQQTRDGNVFLVPKSKKPDVKKN
